Values joined by “and” are separate entries in the source; they are usually repeats but may differ in a detail not shown here. Identical values can stand only once.
These binders were tested against HRgpA-6H (Porphyromonas gingivalis) (UniProt P28784) (assay: ELISA, FASEBA Fab on coated HRgpA-6H).

Binder | OD450nm | Ratio OD(Variant)/OD(WT)
KB001 mouse Fab VL S53Y (Fab, V domains shown) VH: EVQLKQSGPGLVAPSQSLSITCTVSGFSLSIYSVHWVRQPPGKGLEWLGMIWGGGSSDYNSALKSRLSISKDNSKSQVFLKMNSLQTDDTAMYYCARNGNFYAMDYWGQGTSVTVSS VL: QIVLTQSPAIMSASLGERVTMTCTASSSVSSSFLHWYQQKPGSSPQLWIYSTYNLASGVPARFSGSGSGTSYSLTISSMEAEDAATYYCHQYHHSPYIYTFGGGTKLEIK | 0.776 and 0.781 | 0.985 and 0.992
KB001 mouse Fab VL N54I (Fab, V domains shown) VH: EVQLKQSGPGLVAPSQSLSITCTVSGFSLSIYSVHWVRQPPGKGLEWLGMIWGGGSSDYNSALKSRLSISKDNSKSQVFLKMNSLQTDDTAMYYCARNGNFYAMDYWGQGTSVTVSS VL: QIVLTQSPAIMSASLGERVTMTCTASSSVSSSFLHWYQQKPGSSPQLWIYSTSILASGVPARFSGSGSGTSYSLTISSMEAEDAATYYCHQYHHSPYIYTFGGGTKLEIK | 0.755 and 0.772 and 0.754 | 0.964 and 0.985 and 0.962
KB001 mouse Fab VL N54E (Fab, V domains shown) VH: EVQLKQSGPGLVAPSQSLSITCTVSGFSLSIYSVHWVRQPPGKGLEWLGMIWGGGSSDYNSALKSRLSISKDNSKSQVFLKMNSLQTDDTAMYYCARNGNFYAMDYWGQGTSVTVSS VL: QIVLTQSPAIMSASLGERVTMTCTASSSVSSSFLHWYQQKPGSSPQLWIYSTSELASGVPARFSGSGSGTSYSLTISSMEAEDAATYYCHQYHHSPYIYTFGGGTKLEIK | 0.744 and 0.74 | 0.95 and 0.944
KB001 mouse Fab VL T100D (Fab, V domains shown) VH: EVQLKQSGPGLVAPSQSLSITCTVSGFSLSIYSVHWVRQPPGKGLEWLGMIWGGGSSDYNSALKSRLSISKDNSKSQVFLKMNSLQTDDTAMYYCARNGNFYAMDYWGQGTSVTVSS VL: QIVLTQSPAIMSASLGERVTMTCTASSSVSSSFLHWYQQKPGSSPQLWIYSTSNLASGVPARFSGSGSGTSYSLTISSMEAEDAATYYCHQYHHSPYIYDFGGGTKLEIK | 0.645 | 1.23
KB001 mouse Fab VL L55V (Fab, V domains shown) VH: EVQLKQSGPGLVAPSQSLSITCTVSGFSLSIYSVHWVRQPPGKGLEWLGMIWGGGSSDYNSALKSRLSISKDNSKSQVFLKMNSLQTDDTAMYYCARNGNFYAMDYWGQGTSVTVSS VL: QIVLTQSPAIMSASLGERVTMTCTASSSVSSSFLHWYQQKPGSSPQLWIYSTSNVASGVPARFSGSGSGTSYSLTISSMEAEDAATYYCHQYHHSPYIYTFGGGTKLEIK | 0.706 | 0.901
KB001 mouse Fab VL N54W (Fab, V domains shown) VH: EVQLKQSGPGLVAPSQSLSITCTVSGFSLSIYSVHWVRQPPGKGLEWLGMIWGGGSSDYNSALKSRLSISKDNSKSQVFLKMNSLQTDDTAMYYCARNGNFYAMDYWGQGTSVTVSS VL: QIVLTQSPAIMSASLGERVTMTCTASSSVSSSFLHWYQQKPGSSPQLWIYSTSWLASGVPARFSGSGSGTSYSLTISSMEAEDAATYYCHQYHHSPYIYTFGGGTKLEIK | 0.646 | 0.825
KB001 mouse Fab VL L55S (Fab, V domains shown) VH: EVQLKQSGPGLVAPSQSLSITCTVSGFSLSIYSVHWVRQPPGKGLEWLGMIWGGGSSDYNSALKSRLSISKDNSKSQVFLKMNSLQTDDTAMYYCARNGNFYAMDYWGQGTSVTVSS VL: QIVLTQSPAIMSASLGERVTMTCTASSSVSSSFLHWYQQKPGSSPQLWIYSTSNSASGVPARFSGSGSGTSYSLTISSMEAEDAATYYCHQYHHSPYIYTFGGGTKLEIK | 0.672 | 0.858
KB001 mouse Fab VL S53E (Fab, V domains shown) VH: EVQLKQSGPGLVAPSQSLSITCTVSGFSLSIYSVHWVRQPPGKGLEWLGMIWGGGSSDYNSALKSRLSISKDNSKSQVFLKMNSLQTDDTAMYYCARNGNFYAMDYWGQGTSVTVSS VL: QIVLTQSPAIMSASLGERVTMTCTASSSVSSSFLHWYQQKPGSSPQLWIYSTENLASGVPARFSGSGSGTSYSLTISSMEAEDAATYYCHQYHHSPYIYTFGGGTKLEIK | 0.766 | 0.973
KB001 mouse Fab VL N54L (Fab, V domains shown) VH: EVQLKQSGPGLVAPSQSLSITCTVSGFSLSIYSVHWVRQPPGKGLEWLGMIWGGGSSDYNSALKSRLSISKDNSKSQVFLKMNSLQTDDTAMYYCARNGNFYAMDYWGQGTSVTVSS VL: QIVLTQSPAIMSASLGERVTMTCTASSSVSSSFLHWYQQKPGSSPQLWIYSTSLLASGVPARFSGSGSGTSYSLTISSMEAEDAATYYCHQYHHSPYIYTFGGGTKLEIK | 0.774 | 0.988
KB001 mouse Fab VL N54D (Fab, V domains shown) VH: EVQLKQSGPGLVAPSQSLSITCTVSGFSLSIYSVHWVRQPPGKGLEWLGMIWGGGSSDYNSALKSRLSISKDNSKSQVFLKMNSLQTDDTAMYYCARNGNFYAMDYWGQGTSVTVSS VL: QIVLTQSPAIMSASLGERVTMTCTASSSVSSSFLHWYQQKPGSSPQLWIYSTSDLASGVPARFSGSGSGTSYSLTISSMEAEDAATYYCHQYHHSPYIYTFGGGTKLEIK | 0.725 | 0.925
KB001 mouse Fab VL N54F (Fab, V domains shown) VH: EVQLKQSGPGLVAPSQSLSITCTVSGFSLSIYSVHWVRQPPGKGLEWLGMIWGGGSSDYNSALKSRLSISKDNSKSQVFLKMNSLQTDDTAMYYCARNGNFYAMDYWGQGTSVTVSS VL: QIVLTQSPAIMSASLGERVTMTCTASSSVSSSFLHWYQQKPGSSPQLWIYSTSFLASGVPARFSGSGSGTSYSLTISSMEAEDAATYYCHQYHHSPYIYTFGGGTKLEIK | 0.765 | 0.976
KB001 mouse Fab VL N54A (Fab, V domains shown) VH: EVQLKQSGPGLVAPSQSLSITCTVSGFSLSIYSVHWVRQPPGKGLEWLGMIWGGGSSDYNSALKSRLSISKDNSKSQVFLKMNSLQTDDTAMYYCARNGNFYAMDYWGQGTSVTVSS VL: QIVLTQSPAIMSASLGERVTMTCTASSSVSSSFLHWYQQKPGSSPQLWIYSTSALASGVPARFSGSGSGTSYSLTISSMEAEDAATYYCHQYHHSPYIYTFGGGTKLEIK | 0.776 | 0.99
KB001 mouse Fab VL L55Q (Fab, V domains shown) VH: EVQLKQSGPGLVAPSQSLSITCTVSGFSLSIYSVHWVRQPPGKGLEWLGMIWGGGSSDYNSALKSRLSISKDNSKSQVFLKMNSLQTDDTAMYYCARNGNFYAMDYWGQGTSVTVSS VL: QIVLTQSPAIMSASLGERVTMTCTASSSVSSSFLHWYQQKPGSSPQLWIYSTSNQASGVPARFSGSGSGTSYSLTISSMEAEDAATYYCHQYHHSPYIYTFGGGTKLEIK | 0.711 and 0.692 and 0.684 | 0.907 and 0.883 and 0.873
KB001 mouse Fab VL L55T (Fab, V domains shown) VH: EVQLKQSGPGLVAPSQSLSITCTVSGFSLSIYSVHWVRQPPGKGLEWLGMIWGGGSSDYNSALKSRLSISKDNSKSQVFLKMNSLQTDDTAMYYCARNGNFYAMDYWGQGTSVTVSS VL: QIVLTQSPAIMSASLGERVTMTCTASSSVSSSFLHWYQQKPGSSPQLWIYSTSNTASGVPARFSGSGSGTSYSLTISSMEAEDAATYYCHQYHHSPYIYTFGGGTKLEIK | 0.727 | 0.928
KB001 mouse Fab VL S53V (Fab, V domains shown) VH: EVQLKQSGPGLVAPSQSLSITCTVSGFSLSIYSVHWVRQPPGKGLEWLGMIWGGGSSDYNSALKSRLSISKDNSKSQVFLKMNSLQTDDTAMYYCARNGNFYAMDYWGQGTSVTVSS VL: QIVLTQSPAIMSASLGERVTMTCTASSSVSSSFLHWYQQKPGSSPQLWIYSTVNLASGVPARFSGSGSGTSYSLTISSMEAEDAATYYCHQYHHSPYIYTFGGGTKLEIK | 0.702 | 0.891
KB001 mouse Fab VL L55K (Fab, V domains shown) VH: EVQLKQSGPGLVAPSQSLSITCTVSGFSLSIYSVHWVRQPPGKGLEWLGMIWGGGSSDYNSALKSRLSISKDNSKSQVFLKMNSLQTDDTAMYYCARNGNFYAMDYWGQGTSVTVSS VL: QIVLTQSPAIMSASLGERVTMTCTASSSVSSSFLHWYQQKPGSSPQLWIYSTSNKASGVPARFSGSGSGTSYSLTISSMEAEDAATYYCHQYHHSPYIYTFGGGTKLEIK | 0.769 | 0.981
KB001 mouse Fab VL N54K (Fab, V domains shown) VH: EVQLKQSGPGLVAPSQSLSITCTVSGFSLSIYSVHWVRQPPGKGLEWLGMIWGGGSSDYNSALKSRLSISKDNSKSQVFLKMNSLQTDDTAMYYCARNGNFYAMDYWGQGTSVTVSS VL: QIVLTQSPAIMSASLGERVTMTCTASSSVSSSFLHWYQQKPGSSPQLWIYSTSKLASGVPARFSGSGSGTSYSLTISSMEAEDAATYYCHQYHHSPYIYTFGGGTKLEIK | 0.727 | 0.928
KB001 mouse Fab VL L55H (Fab, V domains shown) VH: EVQLKQSGPGLVAPSQSLSITCTVSGFSLSIYSVHWVRQPPGKGLEWLGMIWGGGSSDYNSALKSRLSISKDNSKSQVFLKMNSLQTDDTAMYYCARNGNFYAMDYWGQGTSVTVSS VL: QIVLTQSPAIMSASLGERVTMTCTASSSVSSSFLHWYQQKPGSSPQLWIYSTSNHASGVPARFSGSGSGTSYSLTISSMEAEDAATYYCHQYHHSPYIYTFGGGTKLEIK | 0.695 and 0.731 | 0.887 and 0.933
KB001 mouse Fab VL T100K (Fab, V domains shown) VH: EVQLKQSGPGLVAPSQSLSITCTVSGFSLSIYSVHWVRQPPGKGLEWLGMIWGGGSSDYNSALKSRLSISKDNSKSQVFLKMNSLQTDDTAMYYCARNGNFYAMDYWGQGTSVTVSS VL: QIVLTQSPAIMSASLGERVTMTCTASSSVSSSFLHWYQQKPGSSPQLWIYSTSNLASGVPARFSGSGSGTSYSLTISSMEAEDAATYYCHQYHHSPYIYKFGGGTKLEIK | 0.625 | 1.19

The binders below were run against HRgpA-6H (Porphyromonas gingivalis) (UniProt P28784) (assay: ELISA on coated HRgpA-6H).

Binder | OD450nm | Ratio OD(Variant)/OD(WT)
KB001 mouse Fab FASEBA VH S30E (Fab, V domains shown) VH: EVQLKQSGPGLVAPSQSLSITCTVSGFSLEIYSVHWVRQPPGKGLEWLGMIWGGGSSDYNSALKSRLSISKDNSKSQVFLKMNSLQTDDTAMYYCARNGNFYAMDYWGQGTSVTVSS VL: QIVLTQSPAIMSASLGERVTMTCTASSSVSSSFLHWYQQKPGSSPQLWIYSTSNLASGVPARFSGSGSGTSYSLTISSMEAEDAATYYCHQYHHSPYIYTFGGGTKLEIK | 0.567 | 1.12

From patent publication US20230365662A1
